Test [1] deals with HA-Ctla-4 (zebrafish cytotoxic T lymphocyte antigen-4, from pCDNA3.1-HA-Ctla-4) (zebrafish). Nature of the test: Western blot under non-reducing and reducing conditions; lysate of HEK293T cells transfected with pCDNA3.1-HA-Ctla-4 for 48 hr, mixed with loading buffer without or with β-ME; empty plasmid as control. On the technique in general: In western blotting, separated proteins are transferred to a membrane and probed.

Test [2] concerns the target Ctla-4 with EGFP-tag (labeled protein of the MST assay) (zebrafish). Kind of test: MST; Monolith NT.115; EGFP-tagged Cd28 or Ctla-4 as labeled protein, unlabeled Cd80/86 titrated (initial 3.2 µM, 16 doubling dilutions), 10 min at room temperature, measured at 25 °C, 40% LED, medium MST power.
Test [3] has as its target Cd28 with EGFP-tag (labeled protein of the MST assay) (zebrafish). Described as above.

For orientation: stoichiometry N means the number of molecules, sites or subunits per partner or assembly. Broadly, the Kd is the free concentration of one partner at which half of the binding sites on the other are occupied at equilibrium, for simple one-to-one binding. Read a low Kd as higher affinity.

Turning to “HA-Ctla-4 (zebrafish cytotoxic T lymphocyte antigen-4, from pCDNA3.1-HA-Ctla-4) (receptor)”, the stoichiometry N in test [1] came out at 2.

Take “recombinant soluble Cd80/86 (Cd80/86 extracellular domain) (domain or fragment)”: the Kd in test [2] turned out to be 500 nM; in test [3] it was 2640 nM.

The record behind these values is paper PMC12092003.
